According to article PMC10593751:

Molecular target: human IgG1 (human)
Assay: ELISA; immobilized human IgG (hIgG1 or hIgG2) used to pull down CD64; n = 3

| Kd | Substance |
| --- | --- |
| 53.6 pM | CD64 engineered at the N-terminus with the CKAAKNK (CK) tissue homing peptide (receptor) |
| 58.9 pM | wild-type CD64 (Fc-gamma receptor 1) (from UniProt P12314 16-374) |
